Source: patent US20220033520A1

Tests used:
[1] = target: human FcRn complex (FCGRT and beta-2 microglobulin), recombinant, purified (human) (UniProt P55899); test: SPR, protein L capture, pH 6, kinetic
[2] = target: human FcRn (FCGRT and beta-2 microglobulin) expressed on MDCK II cells (human) (UniProt P55899); test: cell-based or functional assay
[3] = target: human FcRn complex (FCGRT and beta-2 microglobulin), recombinant, purified (human) (UniProt P55899); test: SPR, protein L capture, pH 7.4, steady state
[4] = target: human FcRn complex (FCGRT and beta-2 microglobulin), recombinant, purified (human) (UniProt P55899); test: SPR, anti-human Fab capture, pH 6, steady state
[5] = target: human FcRn complex (FCGRT and beta-2 microglobulin), recombinant, purified (human) (UniProt P55899); test: SPR, anti-human Fab capture, pH 7.4, steady state

antibody comprising wild-type hIgG4 (Table 2), sequence (Fc): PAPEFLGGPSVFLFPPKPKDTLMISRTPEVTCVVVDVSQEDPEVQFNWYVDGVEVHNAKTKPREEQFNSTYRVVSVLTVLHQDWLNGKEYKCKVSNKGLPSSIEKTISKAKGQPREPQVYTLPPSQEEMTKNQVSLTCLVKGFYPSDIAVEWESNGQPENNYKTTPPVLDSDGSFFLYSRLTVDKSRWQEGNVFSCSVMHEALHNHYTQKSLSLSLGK

Kd [1] [nM]	koff [1] [s⁻¹]	kon [1] [M⁻¹ s⁻¹]	Transcytosis Normalized to WT (normalized to WT) [2]	Kd [3] [nM]	Kd [4] [nM]	Kd [5] [nM]	Substance
57.3	0.0107	186000	159	1270			anti-BACE1 hIgG1 antibody, Fc modification Q4 (M252Y/Q311I/M428L/N434Y)
			112				anti-BACE1 hIgG1 antibody, Fc modification T12 (T307Q/N434Y/Y436I)
99.2	0.00371	37400	5.1				antibody comprising modified Fc M428L/N434A (LA) (Table 2)
					10.2	367	anti-Abeta hIgG1 antibody, Fc modification Q6 (M252Y/M428L/N434Y/Y436I)
			140				anti-BACE1 hIgG1 antibody, Fc modification T18 (Q311A/M428L/N434Y)
			71				anti-BACE1 hIgG1 antibody, Fc modification T26 (H433K/N434Y/Y436I)
					8.2	340	anti-Abeta hIgG1 antibody, Fc modification Q95 (M252Y/T307Q/Q311A/N434Y)
			66	412			anti-BACE1 hIgG4 antibody, Fc modification T6-IgG4 (M252Y/N434Y/Y436I)
66.7	0.0271	406000	55	4980			anti-BACE1 hIgG1 antibody, Fc modification T16 (N286E/H433K/N434Y)
64			131	9030			anti-BACE1 hIgG1 antibody, Fc modification T22 (Q311I/H433K/N434Y)
53	0.0334	631000	65	6080			anti-BACE1 hIgG1 antibody, Fc modification T17 (N286E/N434Y/Y436I)
34	0.0357	1.05e+06	112	730			anti-BACE1 hIgG1 antibody, Fc modification T5 (M252Y/H433K/N434Y)
732	0.0164	22300	1				antibody comprising wild-type hIgG1 (Table 2)
					6.6	370	anti-BACE1 hIgG4 antibody, Fc modification Q2 (M252Y/T307Q/M428L/N434Y)
363	0.0048	13200	2.9				anti-BACE1 hIgG1 antibody, Fc modification S8 (H433K)
					5.9	158	anti-Abeta hIgG4 antibody, Fc modification Q3 (M252Y/T307Q/N434Y/Y436I)
92.2	0.00192	20800	9.4				anti-BACE1 hIgG1 antibody, Fc modification D7 (H433K/N434Y)
38	0.0327	852000	108	2450			anti-BACE1 hIgG1 antibody, Fc modification T13 (N286E/Q311A/N434Y)
						339	anti-Abeta hIgG4 antibody, Fc modification Q2 (M252Y/T307Q/M428L/N434Y)
						206	anti-Abeta hIgG1 antibody, Fc modification Q3 (M252Y/T307Q/N434Y/Y436I)
30	0.0201	660000	100	2200			anti-BACE1 hIgG1 antibody, Fc modification T4 (M252Y/M428L/N434Y)
5.09			133	252	8.8		anti-BACE1 hIgG1 antibody, Fc modification Q5 (M252Y/Q311I/N434Y/Y436I)
178	0.00202	11300	2				anti-BACE1 hIgG1 antibody, Fc modification S7 (M428L)
36	0.0278	772000	73	3110			anti-BACE1 hIgG1 antibody, Fc modification T14 (N286E/Q311I/N434Y)
20	0.0178	908000	111	614			anti-BACE1 hIgG1 antibody, Fc modification T2 (M252Y/Q311A/N434Y)
54.9	0.051	929000	26	5530			anti-BACE1 hIgG1 antibody, Fc modification S10 (N434W)
37	0.0319	854000	64	1680			anti-BACE1 hIgG1 antibody, Fc modification T8 (T307Q/Q311A/N434Y)

The next lines start with the substance.

Substance	Kd [1] [nM]	koff [1] [s⁻¹]	kon [1] [M⁻¹ s⁻¹]	Transcytosis Normalized to WT (normalized to WT) [2]	Kd [3] [nM]	Kd [4] [nM]	Kd [5] [nM]
anti-Abeta hIgG1 antibody, Fc modification Q1 (M252Y/T307Q/Q311I/N434Y)						12.7	206
anti-BACE1 hIgG1 antibody, Fc modification S2 (N286E)	303	0.00316	10400	1.7			
anti-BACE1 hIgG1 antibody, Fc modification T11 (T307Q/H433K/N434Y)	37	0.0166	445000	65	4800		
anti-BACE1 hIgG1 antibody, Fc modification S1 (M252Y)	117	0.00172	14700	1.7			
anti-BACE1 hIgG1 antibody, Fc modification S4 (H310A)				1.1			
anti-BACE1 hIgG1 antibody, Fc modification T7 (T307Q/N286E/N434Y)	19	0.0177	931000	91	1120		
anti-BACE1 hIgG1 antibody, Fc modification S9 (N434F)	100	0.0419	418000	6.3			
anti-BACE1 hIgG1 antibody, Fc modification T19 (Q311A/H433K/N434Y)	53.5	0.0096	179000	55	4480		
anti-Abeta hIgG4 antibody, Fc modification Q5 (M252Y/Q311I/N434Y/Y436I)							151
anti-BACE1 hIgG1 antibody, Fc modification S6 (Q311I)	171	0.00157	9190	1.7			
anti-BACE1 hIgG1 antibody, Fc modification T6 (M252Y/N434Y/Y436I)				133	459		
anti-BACE1 hIgG1 antibody, Fc modification T94 (M252Y/N286E/N434Y)	13.6			87	452		380
anti-BACE1 hIgG1 antibody, Fc modification D92 (M252W/N434W)	12.4	0.0074	595000	92	760		
anti-BACE1 hIgG1 antibody, Fc modification T96 (M252Y/V308P/N434Y)	3.54	0.00314	887000	94	123		
anti-Abeta hIgG1 antibody, Fc modification D1 (M252Y/N434Y)						14	1150
anti-BACE1 hIgG1 antibody, Fc modification T1 (M252Y/T307Q/N434Y)	12	0.0101	874000	125	461		
anti-BACE1 hIgG1 antibody, Fc modification T9 (T307Q/Q311I/N434Y)	520	0.00767	14800	140	1930		
anti-Abeta hIgG1 antibody, Fc modification T3 (M252Y/Q311I/N434Y)						11.6	554
anti-Abeta hIgG1 antibody, Fc modification Q4 (M252Y/Q311I/M428L/N434Y)						12.8	667
anti-Abeta hIgG4 antibody, Fc modification Q1 (M252Y/T307Q/Q311I/N434Y)						6.3	165
anti-Abeta hIgG1 antibody, Fc modification Q5 (M252Y/Q311I/N434Y/Y436I)						10.8	265
anti-BACE1 hIgG1 antibody, Fc modification S11 (N434Y)	73.6	0.0141	191000	7.8			
anti-BACE1 hIgG1 antibody, Fc modification S12 (Y436I)	201	0.00193	9590	1.8			
antibody comprising wild-type hIgG4 (Table 2)	563	0.0119	21100	1			
